From US11214614B2, “LTBP complex-specific inhibitors of TGFβ and uses thereof” (Scholar Rock, Inc., priority 2019, dated 2022)

Columns and labels:
huLTBP1 proTGFβ1 [1] = target: T1, huLTBP1 proTGFβ1 (Homo sapiens, UniProt P01137+Q14766); experiment: SPR (Biacore 8K) monovalent binding kinetics of Fabs, biotinylated antigen captured; parameters: biotin (complex biotinylated)
Procedure: (§1) A Biacore 8K system was employed to determine the monovalent binding affinity and the kinetic parameters for antigen binding of test antibodies. Association and dissociation kinetics of Fab fragments SR-AB42-HuFab, SR-AB63-HuFab and SR-AB43-HuFab to antigen complexes were measured, and resulting ka, kd and KD are provided below. Briefly, the binding kinetics were evaluated by surface plasmon resonance using Biacore 8K (GE Healthcare). Biotinylated capture antigens were immobilized to the chip (10 nM, ˜200 RU loading). A Biotin CAPture sensor chip was used to capture the biotinylated antigens. Fabs at 10, 5, 2.5, 1.25, and 0.6 nM concentrations were injected over the captured antigens. 0 nM was used as a reference. Affinities of LTBP antibodies to GARP and LRRC33 were confirmed using higher concentration of Fabs (100, 50, 25, 12.5, 6.25 nM). 0 nM was used as a reference. Multi-cycle kinetics was employed where each analyte concentration was injected in a separate cycle and the sensor chip surface was regenerated after each cycle. All the assays were carried out in freshly prepared 1×HBS-EP+buffer (10 mM HEPES, 150 mM NaCl, 3 mM EDTA, 0.05% Tween20, pH 7.4). Data were fit globally to a 1:1 binding model to obtain the kinetic parameters. The sensorgram for 0 nM analyte concentration was used as reference.
(§2) • 96 well plates—Greinerbio-one REF 650101 • Microplate Foils—GE Healthcare—CAT #28-9758-16 • Biotin CAPture Kit GE Healthcare product number 28920233 • Biacore running buffer—supplied as a 20× solution, diluted in Milli-Q water, TEKnova CAT #H8022 Method:
(§3) These experiments were performed using the Biacore 8K using the method “multi-cycle kinetics/affinity using Biotin CAPture kit.”
(§4) Data collection rate was set to 10 Hz and the Biotin CAPture step was performed for 300 seconds with a flow rate of 2 μL/minute. The Biotin CAPture reagent was used after a 1:5 dilution in 1× Biacore running buffer. Biotinylated ligands (the various complexes of TGFβ1) were utilized at a concentration of 10 nM and were immobilized to the sensor chip for 180 seconds with a flow rate of 10 μL/minute. The analytes, which are each of the Fabs, were tested at 10, 5, 2.5, 1.25, and 0.625 nM with a 0 nM control included. Analyte contact time was 120 seconds and the dissociation time was 900 seconds. The regeneration cycle utilized was 120 seconds with a flow rate of 10 μL/minute.
(§5) The evaluation method used was “multi-cycle affinity using capture” and a 1:1 binding model was used. […] Global fits were utilized for every KD determination.

huLTBP3 proTGFβ1 [2] = target: T2, huLTBP3 proTGFβ1 (Homo sapiens, UniProt P01137+Q9NS15); experiment: as above; parameters: biotin (complex biotinylated); conditions: Fab, huLTBP3 proTGFb1
Procedure: as §1, §2, §3, §4, §5

huGARP proTGFβ1 [3] = target: T3, huGARP proTGFβ1 (Homo sapiens, UniProt P01137); experiment: as above; parameters: biotin (complex biotinylated); conditions: Fab, huGARP proTGFb1
Procedure: as §1, §2, §3, §4, §5

huLRRC33 proTGFβ1 = huLRRC33 proTGFβ1 (Homo sapiens, UniProt P01137); experiment: as above; parameters: biotin (complex biotinylated); modified human kappa light chain signal peptide (N); Histidine tag (C); conditions: Fab, huLRRC33 proTGFb1
Procedure: as §1, §2, §3, §4, §5

huLTBP1 proTGFβ1 [4] = target: T1, huLTBP1 proTGFβ1; experiment: Octet (BLI) binding, IgG captured on AHC tips, antigen at 100 nM; conditions: Table 9, cycle 3, IgG1-agly; for Hu LTBP1-proTGFβ1 Kon: 1:1 fit; for Hu LTBP1-proTGFβ1 Koff: 5-minute dissociation
Procedure: (§6) Suitable methods for in vitro binding assays to determine the parameters of binding kinetics include Bio-layer Interferometry (BLI)-based assays such as Octet, and surface plasmon resonance (SPR)-based assays, such as Biacore systems (see, for example: biophysics.bioc.cam.ac.uk/wp-content/uploads/2011/02/Biacore_assay_handbook.pdf).
(§7) The affinity of SR-AB10, SR-AB2 and SR-AB13 was measured by Octet assay. The protocol used to measure the affinity of the antibodies to the complexes provided herein is summarized below.
(§8) • 96 well black polypropylene plates • AHC Octet tips (anti-human IgG Fc capture tips) (FortdBio) • 10× kinetics buffer (FortdBio) (diluted to 1× in PBS) • reiner Bio-One 96-Well Half Area Microplates (VWR cat #82050-044) Procedure:
(§9) Notes: The volume within each well during an Octet experiment is 100 uL.
(§10) A shake speed of 1000 rpm is used for all assay steps.
(§11) Pre-Wet Tips: • Biosensors must be pre-wet in 1× kinetics buffer (lx KB) for at least 10 minutes before starting an experiment. This can be done inside the Octet or on the bench.
(§12) Loading: • Tips are baselined in 1× KB for 1 minute before loading. • AHC tips are loaded with antibody at a concentration of 1 μg/mL (˜7 nM) for 3 minutes. A limit is set so that loading will stop when any one sensor reaches a response of 1 nanometer. • Tips are baselined in buffer for 1 minute after loading. The antibody should not dissociate from the tips during this time.
(§13) Antigen Association: • TGFβ1 in complex with various presentation molecules was associated to the immobilized antibodies at a single concentration of 100 nM in 1× KB.
(§14) Antibody Dissociation: • Dissociation in 1×KB was performed for 3 minutes.
(§15) Data Analysis using ForteBio Data analysis software 8.2: • Processing: align Y axis to last 5 seconds of baseline, perform inter-step correction with align to dissociation, and perform Savitzky-Golay filtering. • Analysis: 1:1 fitting model is utilized. Fitting is local and full. […] Results:
(§16) LTBP complex-specific antibodies from the first round of affinity maturation/optimization (SR-AB14, SR-AB16, SR-AB17, SR-AB18, SR-AB19) were selected for a second round of affinity maturation/optimization (i.e., CDR-H3 mutagenesis as described herein) and particular progeny antibodies (SR-AB20, SR-AB21, SR-AB22, SR-AB23, SR-AB24, SR-AB25, SR-AB26, SR-AB27, SR-AB28, and SR-AB29) were assessed for their ability to bind various proTGFβl constructs. Binding affinities of the optimized antibodies were measured by Octet against human LTBP1-proTGFβI, human LTBP3-proTGFb1, mouse LTBP1-proTGFβ1, mouse LTBP3-proTGFb1, and GARP-proTGFβl complexes, essentially as described in Example 6. In brief, test antibodies were immobilized to the surface of anti-human Fc capture biosensors (AHC) (ForteBio®) and binding was then tested against the various TGFβ1 complexes at a single concentration of 100 nM to assess binding affinities. The antigens were allowed to associate for 3 minutes followed by a 5-minute dissociation. Kinetics buffer (ForteBio®) was used throughout the experiment, and KD was determined using a 1:1 fitting model for each antibody antigen pair.
(§17) Binding affinities of the optimized antibodies were measured by Octet against human LTBP1-proTGFβ1, human LTBP3-proTGFβ1, mouse LTBP1-proTGFβ1, mouse LTBP3-proTGFβ1, and GARP-proTGFβ1 complexes, essentially as described in Example 6. In brief, test antibodies were immobilized to the surface of anti-human Fc capture biosensors (AHC) (ForteBio®) and binding was then tested against the various TGFβ1 complexes at a single concentration of 100 nM to assess binding affinities. The antigens were allowed to associate for 3 minutes followed by a 5-minute dissociation. Kinetics buffer (ForteBio®) was used throughout the experiment, and KD was determined using a 1:1 fitting model for each antibody antigen pair. […]

huGARP proTGFβ1 [5] = target: T3, huGARP proTGFβ1; experiment: as above; conditions: N.B. = non-binder under conditions of this assay; for ForteBio IgG KD Hu GARP-proTGFβ1 (M) Avid: Table 9, cycle 3, IgG1-agly, 1:1 fit; for ForteBio IgG KD Hu GARP-proTGFβ1 in solution (M) Avid: Table 10, same assay conditions as Table 9
Procedure: as §6, §7, §8, §9, §10, §11, §12, §13, §14, §15, §16, §17

huLTBP3 proTGFβ1 [6] = target: T2, huLTBP3 proTGFβ1; experiment: as above; conditions: Table 9, cycle 3, IgG1-agly; for Hu LTBP3-proTGFβ1 Kon: 1:1 fit; for Hu LTBP3-proTGFβ1 Koff: 5-minute dissociation
Procedure: as §6, §7, §8, §9, §10, §11, §12, §13, §14, §15, §16
Binding affinities of the optimized antibodies were measured by Octet against human LTBP1-proTGFβ1, human LTBP3-proTGFβ1, mouse LTBP1-proTGFβ1, mouse LTBP3-proTGFβ1, and GARP-proTGFβ1 complexes, essentially as described in Example 6. In brief, test antibodies were immobilized to the surface of anti-human Fc capture biosensors (AHC) (ForteBio®) and binding was then tested against the various TGFβ1 complexes at a single concentration of 100 nM to assess binding affinities. The antigens were allowed to associate for 3 minutes followed by a 5-minute dissociation. Kinetics buffer (ForteBio®) was used throughout the experiment, and KD was determined using a 1:1 fitting model for each antibody antigen pair.

[7] = Fab, huLTBP1 proTGFβ1, SR-AB42-HuFab average of five, SR-AB63-HuFab average of four replicate experiments

T1 sequence (P01137 30-390): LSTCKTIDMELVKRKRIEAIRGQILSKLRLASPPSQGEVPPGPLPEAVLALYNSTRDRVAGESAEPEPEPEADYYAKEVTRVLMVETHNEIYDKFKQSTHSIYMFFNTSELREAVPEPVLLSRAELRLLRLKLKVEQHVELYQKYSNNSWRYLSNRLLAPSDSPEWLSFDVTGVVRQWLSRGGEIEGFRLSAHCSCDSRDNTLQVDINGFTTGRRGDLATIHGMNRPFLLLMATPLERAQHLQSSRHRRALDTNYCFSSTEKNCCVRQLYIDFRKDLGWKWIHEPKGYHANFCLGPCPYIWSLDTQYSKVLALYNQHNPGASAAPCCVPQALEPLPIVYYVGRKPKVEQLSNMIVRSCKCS
T1 sequence (Q14766 347-1721 limits assumed): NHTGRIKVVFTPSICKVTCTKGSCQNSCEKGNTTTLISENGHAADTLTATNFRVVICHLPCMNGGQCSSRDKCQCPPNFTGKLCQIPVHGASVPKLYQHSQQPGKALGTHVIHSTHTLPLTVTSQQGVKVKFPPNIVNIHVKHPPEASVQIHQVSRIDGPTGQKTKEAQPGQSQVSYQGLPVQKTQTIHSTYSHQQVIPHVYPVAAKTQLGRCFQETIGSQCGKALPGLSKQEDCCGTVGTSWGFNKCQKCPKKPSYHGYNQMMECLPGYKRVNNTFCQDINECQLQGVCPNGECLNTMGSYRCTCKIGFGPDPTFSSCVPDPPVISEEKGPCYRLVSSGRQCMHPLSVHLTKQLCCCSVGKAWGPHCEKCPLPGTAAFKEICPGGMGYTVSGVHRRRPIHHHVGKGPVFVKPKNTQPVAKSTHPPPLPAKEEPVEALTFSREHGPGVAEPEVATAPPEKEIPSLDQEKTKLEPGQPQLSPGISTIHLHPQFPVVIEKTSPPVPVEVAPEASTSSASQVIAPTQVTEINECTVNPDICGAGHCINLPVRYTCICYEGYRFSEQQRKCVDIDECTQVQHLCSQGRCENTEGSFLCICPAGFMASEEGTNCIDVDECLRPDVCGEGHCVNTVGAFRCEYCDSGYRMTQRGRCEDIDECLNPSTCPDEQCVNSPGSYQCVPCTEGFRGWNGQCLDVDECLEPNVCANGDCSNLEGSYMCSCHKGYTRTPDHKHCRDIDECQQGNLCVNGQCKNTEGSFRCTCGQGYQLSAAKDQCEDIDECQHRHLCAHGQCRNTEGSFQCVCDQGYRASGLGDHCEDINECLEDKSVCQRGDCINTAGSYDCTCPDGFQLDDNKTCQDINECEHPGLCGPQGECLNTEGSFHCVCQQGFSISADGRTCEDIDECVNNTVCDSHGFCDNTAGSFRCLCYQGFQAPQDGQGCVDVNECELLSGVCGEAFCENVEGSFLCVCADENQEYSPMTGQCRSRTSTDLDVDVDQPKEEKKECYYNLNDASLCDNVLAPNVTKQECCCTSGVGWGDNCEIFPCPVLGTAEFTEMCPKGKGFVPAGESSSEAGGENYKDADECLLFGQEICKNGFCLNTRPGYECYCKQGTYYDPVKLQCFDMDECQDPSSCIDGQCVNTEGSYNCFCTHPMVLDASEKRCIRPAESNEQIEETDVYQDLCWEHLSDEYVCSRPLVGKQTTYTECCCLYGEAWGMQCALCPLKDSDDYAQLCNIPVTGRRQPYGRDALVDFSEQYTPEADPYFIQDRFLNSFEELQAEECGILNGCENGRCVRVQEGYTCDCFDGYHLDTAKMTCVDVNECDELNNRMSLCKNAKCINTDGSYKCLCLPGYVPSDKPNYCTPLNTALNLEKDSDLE
T2 sequence (P01137 30-390): as the sequence (P01137 30-390) above
T2 sequence (Q9NS15 44-1303): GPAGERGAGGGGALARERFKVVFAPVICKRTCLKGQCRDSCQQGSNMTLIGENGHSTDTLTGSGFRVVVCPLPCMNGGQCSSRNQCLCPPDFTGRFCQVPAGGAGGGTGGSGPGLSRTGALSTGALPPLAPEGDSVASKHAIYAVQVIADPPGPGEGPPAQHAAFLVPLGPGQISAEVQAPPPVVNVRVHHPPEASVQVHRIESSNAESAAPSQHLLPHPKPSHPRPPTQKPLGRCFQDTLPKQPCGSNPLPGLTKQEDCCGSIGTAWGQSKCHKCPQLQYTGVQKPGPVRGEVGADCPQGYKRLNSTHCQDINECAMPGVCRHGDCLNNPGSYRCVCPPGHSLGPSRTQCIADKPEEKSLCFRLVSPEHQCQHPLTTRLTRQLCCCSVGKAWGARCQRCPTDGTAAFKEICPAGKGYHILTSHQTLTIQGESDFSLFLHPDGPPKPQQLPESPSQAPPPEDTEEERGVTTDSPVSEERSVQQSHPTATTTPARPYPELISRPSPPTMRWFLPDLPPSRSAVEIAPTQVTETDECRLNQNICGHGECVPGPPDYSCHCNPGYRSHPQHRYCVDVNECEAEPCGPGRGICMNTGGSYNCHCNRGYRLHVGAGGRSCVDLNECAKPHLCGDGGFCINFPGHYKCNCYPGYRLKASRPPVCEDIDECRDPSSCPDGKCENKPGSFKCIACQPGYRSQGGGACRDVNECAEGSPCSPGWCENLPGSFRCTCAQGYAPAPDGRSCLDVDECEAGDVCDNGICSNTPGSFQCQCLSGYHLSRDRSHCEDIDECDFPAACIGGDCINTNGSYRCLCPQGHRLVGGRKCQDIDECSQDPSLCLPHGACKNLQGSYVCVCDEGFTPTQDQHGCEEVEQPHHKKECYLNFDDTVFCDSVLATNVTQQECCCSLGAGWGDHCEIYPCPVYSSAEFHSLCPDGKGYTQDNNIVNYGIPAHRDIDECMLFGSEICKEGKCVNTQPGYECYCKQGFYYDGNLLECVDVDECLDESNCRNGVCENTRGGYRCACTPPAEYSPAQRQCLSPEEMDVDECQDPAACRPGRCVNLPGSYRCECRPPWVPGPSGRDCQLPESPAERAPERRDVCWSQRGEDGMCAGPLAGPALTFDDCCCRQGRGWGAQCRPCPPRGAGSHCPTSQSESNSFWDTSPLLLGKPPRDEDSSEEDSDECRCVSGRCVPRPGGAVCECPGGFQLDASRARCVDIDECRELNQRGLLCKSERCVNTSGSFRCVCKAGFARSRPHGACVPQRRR
T3 sequence (P01137 30-390): as the sequence (P01137 30-390) above
T3 sequence (Q14392 18-627 partner limits assumed): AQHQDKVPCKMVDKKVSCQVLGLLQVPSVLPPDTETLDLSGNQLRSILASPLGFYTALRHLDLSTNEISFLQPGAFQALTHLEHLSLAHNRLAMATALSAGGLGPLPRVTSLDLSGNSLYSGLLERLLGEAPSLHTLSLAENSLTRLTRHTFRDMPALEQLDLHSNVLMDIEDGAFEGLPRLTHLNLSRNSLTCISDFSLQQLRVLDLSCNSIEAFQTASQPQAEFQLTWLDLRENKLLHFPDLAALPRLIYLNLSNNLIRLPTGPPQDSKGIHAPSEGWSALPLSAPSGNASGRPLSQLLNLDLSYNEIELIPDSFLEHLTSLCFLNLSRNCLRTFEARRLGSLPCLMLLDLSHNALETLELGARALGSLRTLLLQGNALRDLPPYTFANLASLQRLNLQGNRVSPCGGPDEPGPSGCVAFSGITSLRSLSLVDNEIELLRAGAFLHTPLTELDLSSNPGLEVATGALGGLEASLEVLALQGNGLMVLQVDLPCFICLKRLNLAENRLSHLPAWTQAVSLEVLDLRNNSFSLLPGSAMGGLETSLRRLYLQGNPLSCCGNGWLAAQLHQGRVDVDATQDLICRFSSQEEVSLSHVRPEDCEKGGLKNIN
Chain of huLRRC33 proTGFβ1 (P01137 30-390): as the sequence (P01137 30-390) above
Chain of huLRRC33 proTGFβ1 (Q86YC3 with tags, fused parts or gaps partner limits assumed): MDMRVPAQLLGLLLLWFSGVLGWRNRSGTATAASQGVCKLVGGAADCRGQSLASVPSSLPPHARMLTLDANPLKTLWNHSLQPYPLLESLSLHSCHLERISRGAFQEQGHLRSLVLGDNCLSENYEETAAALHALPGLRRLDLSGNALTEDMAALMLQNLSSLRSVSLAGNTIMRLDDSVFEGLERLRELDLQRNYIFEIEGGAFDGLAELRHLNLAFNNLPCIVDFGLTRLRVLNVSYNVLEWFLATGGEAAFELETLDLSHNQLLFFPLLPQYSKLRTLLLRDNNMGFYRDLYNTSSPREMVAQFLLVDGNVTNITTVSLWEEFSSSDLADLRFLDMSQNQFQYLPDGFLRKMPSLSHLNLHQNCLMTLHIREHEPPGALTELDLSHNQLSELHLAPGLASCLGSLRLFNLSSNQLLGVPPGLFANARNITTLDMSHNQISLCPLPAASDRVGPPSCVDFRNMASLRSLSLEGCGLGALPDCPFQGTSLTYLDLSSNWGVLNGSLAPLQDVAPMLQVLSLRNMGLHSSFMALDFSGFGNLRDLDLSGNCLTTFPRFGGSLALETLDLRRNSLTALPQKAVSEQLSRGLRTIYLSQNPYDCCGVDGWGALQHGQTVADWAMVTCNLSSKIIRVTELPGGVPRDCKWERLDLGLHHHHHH

| ka (huLTBP1 proTGFβ1 [1]; [7]) [M⁻¹ s⁻¹] | kd (huLTBP1 proTGFβ1 [1]; [7]) [s⁻¹] | ka (huLTBP3 proTGFβ1 [2]) [M⁻¹ s⁻¹] | kd (huLTBP3 proTGFβ1 [2]) [s⁻¹] | ka (huGARP proTGFβ1 [3]) [M⁻¹ s⁻¹] | kd (huGARP proTGFβ1 [3]) [s⁻¹] | ka (huLRRC33 proTGFβ1) [M⁻¹ s⁻¹] | kd (huLRRC33 proTGFβ1) [s⁻¹] | Hu LTBP1-proTGFβ1 Kon (huLTBP1 proTGFβ1 [4]) [M⁻¹ s⁻¹] | Hu LTBP1-proTGFβ1 Koff (huLTBP1 proTGFβ1 [4]) [s⁻¹] | ForteBio IgG KD Hu GARP-proTGFβ1 (M) Avid (huGARP proTGFβ1 [5]) | ForteBio IgG KD Hu GARP-proTGFβ1 in solution (M) Avid (huGARP proTGFβ1 [5]) | Hu LTBP3-proTGFβ1 Kon (huLTBP3 proTGFβ1 [6]) [M⁻¹ s⁻¹] | Hu LTBP3-proTGFβ1 Koff (huLTBP3 proTGFβ1 [6]) [s⁻¹] | KD of Fab fragments (huLTBP1 proTGFβ1 [1]; SPR, Fab fragments, antigen not given) | Molecule |
| --- | --- | --- | --- | --- | --- | --- | --- | --- | --- | --- | --- | --- | --- | --- | --- |
| 371000 | 3.82e-08 | 394000 | 4.99e-05 | 2660 | 0.00093 | 5000 | 0.00108 |  |  |  |  |  |  |  | SR-AB63-HuFab: human Fab fragment of SR-AB63 used in SPR (antibody, V domains shown) VH: QLQLQESGPGLVKPSETLSLTCTVSGGSIRSSSYYWGWIRQPPGKGLEWIGSISYSATTYYNPSLKSRVTISVDTSKNQFSLKLSSVTAADTAVYYCAGDPSYDSIAGMQVWGQGTTVTVSS VL: DIQLTQSPSSLSASVGDRVTITCRASQSISSYLNWYQQKPGKAPKLLIYAASNLQSGVPSRFSGSGSGTDFTLTISSLQPEDFATYYCQQSFDWPLTFGGGTKVEIK |
|  |  |  |  |  |  |  |  | 244000 | 0.000159 | N.B. | N.B. | 337000 | 6e-05 | sub-nanomolar | SR-AB43: cycle 3 light chain-optimized antibody, lineage SR-AB23; CDRs SEQ ID NO: 172-177 (antibody, V domains shown) VH: QVQLVESGGGVVQPGRSLRLSCAASGFTFRSYVMHWVRQAPGKGLEWVAVISHEGSLKYYADSVKGRFTISRDNSKNTLYLQMNSLRAEDTAVYYCARPRIAARRGGFGYWGQGTLVTVSS VL: NFMLTQPHSVSESPGKTVTISCTRSSGNIDYNYVQWYQQRPGSSPTTVIYEDNVRPSGVPDRFSGSIDSSSNSASLTISGLKTEDEADYYCQSYDSDNQRVVFGGGTKLTVL |
|  |  |  |  |  |  |  |  | 150000 | 6e-05 | N.B. | N.B. | 182000 | 6.07e-05 |  | SR-AB40: cycle 3 light chain-optimized antibody, lineage SR-AB23; CDRs SEQ ID NO: 154-159 (antibody, V domains shown) VH: QVQLVESGGGVVQPGRSLRLSCAASGFTFRSYVMHWVRQAPGKGLEWVAVISHEGSLKYYADSVKGRFTISRDNSKNTLYLQMNSLRAEDTAVYYCARPRIAARRGGFGYWGQGTLVTVSS VL: NFMLTQPHSVSESPGKTVTISCTRSSGNIDNNYVQWYQQRPGSSPTTVIYEDNQRPSGVPDRFSGSIDSSSNSASLTISGLKTEDEADYYCQSYDYSNQGVVFGGGTKLTVL |
